Columns and labels:
HeLa Kyoto [1] = test: solubility change mitosis vs G1/S (difference of NP-40 vs SDS log2 ratios) (log2 ratio difference); higher = more soluble in mitosis
HeLa Kyoto [2] = test: solubility in G1/S (NP-40 vs SDS abundance) (log2 ratio); higher = more soluble; conditions: cell cycle stage: G1/S
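Throughout, for solubility change mitosis vs G1/S (difference of NP-40 vs SDS log2 ratios): synchronized HeLa Kyoto cells (double thymidine block for G1/S, nocodazole release for mitosis), protein amounts in NP-40 versus SDS lysates quantified by mass spectrometry, three biological replicates.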
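Throughout, for solubility in G1/S (NP-40 vs SDS abundance): HeLa Kyoto cells arrested at G1/S by double thymidine block, proteins quantified by TMT10plex mass spectrometry in mild NP-40 versus SDS extracts, three biological replicates.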

Sequence	solubility change mitosis (log2) (HeLa Kyoto [1])	solubility in G1/S (log2) (HeLa Kyoto [2])
MASPEPRRGGDGAAQAARKTRVEANSPLPKNSGSLNEAEALNPEVTLSSEGSLNLEDILYLEDTGDLDETLYVQETEKAEEALYIEEAMQPDEALHVEEPGNPEETVCVEETTEPDRIQFVEGPVEPGKPTSPEHVVYEGETVTRAEKSNPEESLRAEQSPSMEENLSIEDLELLEGRFQQCVQAVAQLEEERDQLIHELVLLREPALQEVQQVHQDILAAYKLHAQAELERDGLREEIRLVKQKLFKVTKECVAYQYQLECRQQDVAQFADFREVLTTRATQLSEELAQLRDAYQKQKEQLRQQLEAPPSQRDGHFLQESRRLSAQFENLMAESRQDLEEEYEPQFLRLLERKEAGTKALQRTQAEIQEMKEALRPLQAEARQLRLQNRNLEDQIALVRQKRDEEVQQYREQLEEMEERQRQLRNGVQLQQQKNKEMEQLRLSLAEELSTYKAMLLPKSLEQADAPTSQAGGMETQSQGAV [SYNC]	0.0968	0.502
MASRWQNMGTSVRRRSLQHQEQLEDSKELQPVVSHQETSVGALGSLCRQFQRRLPLRAVNLNLRAGPSWKRLETPEPGQQGLQAAARSAKSALGAVSQRIQESCQSGTKWLVETQVKARRRKRGAQKGSGSPTHSLSQKSTRLSGAAPAHSAADPWEKEHHRLSVRMGSHAHPLRRSRREAAFRSPYSSTEPLCSPSESDSDLEPVGAGIQHLQKLSQELDEAIMAEERKQALSDRQGFILKDVYASP [FAM64A]	0.481	0.000622
MASSDLEQLCSHVNEKIGNIKKTLSLRNCGQEPTLKTVLNKIGDEIIVINELLNKLELEIQYQEQTNNSLKELCESLEEDYKDIEHLKENVPSHLPQVTVTQSCVKGSDLDPEEPIKVEEPEPVKKPPKEQRSIKEMPFITCDEFNGVPSYMKSRLTYNQINDVIKEINKAVISKYKILHQPKKSMNSVTRNLYHRFIDEETKDTKGRYFIVEADIKEFTTLKADKKFHVLLNILRHCRRLSEVRGGGLTRYVIT [SKA1]	-0.0548	0.713
MASSEVARHLLFQSHMATKTTCMSSQGSDDEQIKRENIRSLTMSGHVGFESLPDQLVNRSIQQGFCFNILCVGETGIGKSTLIDTLFNTNFEDYESSHFCPNVKLKAQTYELQESNVQLKLTIVNTVGFGDQINKEESYQPIVDYIDAQFEAYLQEELKIKRSLFTYHDSRIHVCLYFISPTGHSLKTLDLLTMKNLDSKVNIIPVIAKADTVSKTELQKFKIKLMSELVSNGVQIYQFPTDDDTIAKVNAAMNGQLPFAVVGSMDEVKVGNKMVKARQYPWGVVQVENENHCDFVKLREMLICTNMEDLREQTHTRHYELYRRCKLEEMGFTDVGPENKPVSVQETYEAKRHEFHGERQRKEEEMKQMFVQRVKEKEAILKEAERELQAKFEHLKRLHQEERMKLEEKRRLLEEEIIAFSKKKATSEIFHSQSFLATGSNLRKDKDRKNSNFL [SEPT10]	-0.0981	-0.132
MASSSGSSPRPAPDENEFPFGCPPTVCQDPKEPRALCCAGCLSENPRNGEDQICPKCRGEDLQSISPGSRLRTQEKAHPEVAEAGIGCPFAGVGCSFKGSPQSVQEHEVTSQTSHLNLLLGFMKQWKARLGCGLESGPMALEQNLSDLQLQAAVEVAGDLEVDCYRAPCSESQEELALQHFMKEKLLAELEGKLRVFENIVAVLNKEVEASHLALATSIHQSQLDRERILSLEQRVVELQQTLAQKDQALGKLEQSLRLMEEASFDGTFLWKITNVTRRCHESACGRTVSLFSPAFYTAKYGYKLCLRLYLNGDGTGKRTHLSLFIVIMRGEYDALLPWPFRNKVTFMLLDQNNREHAIDAFRPDLSSASFQRPQSETNVASGCPLFFPLSKLQSPKHAYVKDDTMFLKCIVETST [TRAF1]	-0.305	0.254
MATFVSELEAAKKNLSEALGDNVKQYWANLKLWFKQKISKEEFDLEAHRLLTQDNVHSHNDFLLAILTRCQILVSTPDGAGSLPWPGGSAAKPGKPKGKKKLSSVRQKFDHRFQPQNPLSGAQQFVAKDPQDDDDLKLCSHTMMLPTRGQLEGRMIVTAYEHGLDNVTEEAVSAVVYAVENHLKDILTSVVSRRKAYRLRDGHFKYAFGSNVTPQPYLKNSVVAYNNLIESPPAFTAPCAGQNPASHPPPDDAEQQAALLLACSGDTLPASLPPVNMYDLFEALQVHREVIPTHTVYALNIERIITKLWHPNHEELQQDKVHRQRLAAKEGLLLC [TADA1]	-0.0314	0.289
MATPGPVIPEVPFEPSKPPVIEGLSPTVYRNPESFKEKFVRKTRENPVVPIGCLATAAALTYGLYSFHRGNSQRSQLMMRTRIAAQGFTVAAILLGLAVTAMKSRP [HIGD2A]	0.482	-0.399
